Data as given in IntAct's records for PubMed 38225382.

B1: Syntaxin-1B (Homo sapiens), P61266 (parent)
chain: MKDRTQELRSAKDSDDEEEVVHVDRDHFMDEFFEQVEEIRGCIEKLSEDVEQVKKQHSAILAAPNPDEKTKQELEDLTADIKKTANKVRSKLKAIEQSIEQEEGLNRSSADLRIRKTQHSTLSRKFVEVMTEYNATQSKYRDRCKDRIQRQLEITGRTTTNEELEDMLESGKLAIFTDDIKMDSQMTKQALNEIETRHNEIIKLETSIRELHDMFVDMAMLVESQGEMIDRIEYNVEHSVDYVERAVSDTKKAVKYQSKARRKKIMIIICCVVLGVVLASSIGGTLGL
partner: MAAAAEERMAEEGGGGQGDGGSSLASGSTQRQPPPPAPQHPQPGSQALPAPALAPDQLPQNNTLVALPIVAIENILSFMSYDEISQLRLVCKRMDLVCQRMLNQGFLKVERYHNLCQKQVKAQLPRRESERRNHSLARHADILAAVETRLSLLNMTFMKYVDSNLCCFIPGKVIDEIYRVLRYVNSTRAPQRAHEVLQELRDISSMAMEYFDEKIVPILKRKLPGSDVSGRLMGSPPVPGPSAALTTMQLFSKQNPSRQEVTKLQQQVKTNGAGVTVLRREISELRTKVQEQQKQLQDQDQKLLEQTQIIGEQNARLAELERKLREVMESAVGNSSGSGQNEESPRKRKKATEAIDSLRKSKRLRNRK

Variants of: B1
Details: with fbx28_human FBXO28, Q9NVF7
V216E was tested, and the “effect of a mutation on the interaction” value was “decreasing interaction strength”.
With N134E the “effect of a mutation on the interaction” value was “with no effect”.
G226R was tested, and the “effect of a mutation on the interaction” value was “decreasing interaction strength”.
For S239P, the “effect of a mutation on the interaction” value was “decreasing interaction strength”.
